# In US20250327097A1, “ORGANISMS PRODUCING LESS CROTONIC ACID” (Global Bioenergies, priority 2021, published 2025):
# Residue numbers refer to the chain shown, from its start. Names may count otherwise.
# B1: E126K-H141Q-I283T-N285P-N287T-Q290E-S322T-N388M-K394R-C430A-L432F-L434W-S436N-dG462 (protein)
# chain: MFLKSLREQINLLKRQGDLRIINRPVDSYLEAAAIIRRSTETKAPVPLMTNIKGYPGCSIVGGLAALSSNPEYPLSRVAMSLGLSTTASAQSIVQYLIDGLKKTPYLPVEIDSNSAPCKQNILRGKDASLAHFPIPQVHQQDGNRYVNTWGVFIVESPDGQWCNWSIQRVQYLNDRQMIALVFPSQHISDIWEEWVKIGKPMPYALVQGCEPIVPYIAGLPLLERNVNEAEYIGALYGKGIEVVKCETHDLRVPASSEVVIEGYFAITREGVEGPFGEFAGYTPPETSLEPILSITAISWQDDPIWPVVAEGKPVDEYHTCTGIGDAAAIQNVLLTANLPVSFVWVPLYSACHLMIVSINRHWRQTHPDLTSEQLTKKVGDVIHQTRMSIKLPRIVVLDDDVDPADTESLLWALATRIHPERKRYFYESAIFPWLNCYSEEERHNRKGKRVIIDALLPENHGAISSFDYAYPDDIKQRVLMHWETDFSHD
# B2: I283L-N285P-N287T-Q290E-S322T-N388M-K394R-C430A-L432F-L434W-S436N-dG462 (protein)
# chain: B1 chain with K126E, Q141H, T283L
# B3: I283T-N285P-N287T-L289W-Q290E-S322T-N388M-K394R-C430A-L432F-L434W-S436N-dG462 (protein)
# chain: B1 chain with K126E, Q141H, L289W
# B4: I283T-N285P-N287T-L289R-Q290E-S322T-N388M-K394R-C430A-L432F-L434W-S436N-dG462 (protein)
# chain: B1 chain with K126E, Q141H, L289R
# B5: I283T-N285P-N287T-Q290E-S322T-N388M-K394R-C430A-L432F-L434W-S436N-H444R-dG462 (protein)
# chain: B1 chain with K126E, Q141H, H444R
# B6: I283T-N285P-N287T-Q290E-S322T-N388M-K394R-K423G-C430A-L432F-L434W-S436N-dG462 (protein)
# chain: B1 chain with K126E, Q141H, K423G
# B7: I283T-N285P-N287T-Q290E-S322T-N388M-K394R-C430A-L432F-L434W-S436N-H444T-dG462 (protein)
# chain: B1 chain with K126E, Q141H, H444T
# B8: I283T-N285P-N287T-Q290E-S322T-N388M-K394R-C430A-L432F-L434W-S436N-N460G-dG462 (protein)
# chain: B1 chain with K126E, Q141H, N460G
# B9: I283T-N285P-N287T-Q290E-S322T-Q365T-N388M-K394R-C430A-L432F-L434W-S436N-dG462 (protein)
# chain: B1 chain with K126E, Q141H, Q365T
# B10: P184S-I283T-N285P-N287T-Q290E-S322T-N388M-K394R-C430A-L432F-L434W-S436N-dG462 (protein)
# chain: B1 chain with K126E, Q141H, P184S
# B11: I283T-N285P-N287T-L289C-Q290E-S322T-N388M-K394R-C430A-L432F-L434W-S436N-dG462 (protein)
# chain: B1 chain with K126E, Q141H, L289C
# B12: I283T-N285P-N287T-Q290E-S322T-N388M-K394R-C430A-L432F-L434W-S436N-H444F-dG462 (protein)
# chain: B1 chain with K126E, Q141H, H444F
# B13: I283T-N285P-N287T-Q290E-S322T-N388M-K394R-C430A-L432F-L434W-S436N-dG462-A470S (protein)
# chain: B1 chain with K126E, Q141H, A470S
# B14: L223Y-I283T-N285P-N287T-Q290E-S322T-N388M-K394R-C430A-L432F-L434W-S436N-dG462 (protein)
# chain: B1 chain with K126E, Q141H, L223Y
# B15: V227Y-I283T-N285P-N287T-Q290E-S322T-N388M-K394R-C430A-L432F-L434W-S436N-dG462 (protein)
# chain: B1 chain with K126E, Q141H, V227Y
# B16: I283T-P284D-i284aP-N287P-S322T-N388M-E421V-R422F-C430N-L432F-L434W-S436N-H461T-dG462-A463T (protein)
# chain: MFLKSLREQINLLKRQGDLRIINRPVDSYLEAAAIIRRSTETKAPVPLMTNIKGYPGCSIVGGLAALSSNPEYPLSRVAMSLGLSTTASAQSIVQYLIDGLKKTPYLPVEIDSNSAPCKQNILRGEDASLAHFPIPQVHQHDGNRYVNTWGVFIVESPDGQWCNWSIQRVQYLNDRQMIALVFPSQHISDIWEEWVKIGKPMPYALVQGCEPIVPYIAGLPLLERNVNEAEYIGALYGKGIEVVKCETHDLRVPASSEVVIEGYFAITREGVEGPFGEFAGYTDNEPSLQPILSITAISWQDDPIWPVVAEGKPVDEYHTCTGIGDAAAIQNVLLTANLPVSFVWVPLYSACHLMIVSINRHWRQTHPDLTSEQLTKKVGDVIHQTRMSIKLPKIVVLDDDVDPADTESLLWALATRIHPVFKRYFYESNIFPWLNCYSEEERHNRKGKRVIIDALLPENTGTISSFDYAYPDDIKQRVLMHWETDFSHD
# B17: I283T-N285P-N287T-Q290E-S322T-N388M-K394R-C430V-L432F-L434W-S436N-dG462 (protein)
# chain: B1 chain with K126E, Q141H, A430V
# B18: N287Q-N388M-K394R-C430N-L432F-L434W-S436N (protein)
# chain: B1 chain with K126E, Q141H, T283I, P285N, T287Q, E290Q, T322S, A430N
# B19: I283T-P284D-i284aP-N287P-S322T-N388M-C430N-L432F-L434W-S436N-H461A-dG462 (protein)
# chain: B16 chain with V421E, F422R, T461A, T463A
# B20: I283T-P284D-i284aP-N287P-S322T-N388M-E421V-R422F-C430N-L432F-L434W-S436N-H461T-dG462 (protein)
# chain: B16 chain with T463A
# B21: I283T-N285P-N287T-Q290E-S322T-N388M-K394R-C430A-L432F-L434W-S436N-dG462-A463F (protein)
# chain: B1 chain with K126E, Q141H, A463F
# B22: I283T-P284D-i284aP-N287P-S322T-N388M-C430N-L432F-L434W-S436N-H461A-dG462-A463T (protein)
# chain: B16 chain with V421E, F422R, T461A
# B23: N287R-N388M-K394R-C430N-L432F-L434W-S436N (protein)
# chain: B1 chain with K126E, Q141H, T283I, P285N, T287R, E290Q, T322S, A430N
# Tested on: 3-methylcrotonic acid
# Type: biochemical, Yersinia frederiksenii
# Set-up: key: “+” representing a low increase in activity; “++++” representing a high increase in activity
row,Molecule,Activity relative to WT
1,B1,++++
2,B2,++++
3,B3,++++
4,B4,++++
5,B5,++++
6,B6,++++
7,B7,++++
8,B8,++++
9,B9,++++
10,B10,++++
11,B11,++++
12,B12,++++
13,B13,++++
14,B14,++++
15,B15,++++
16,B16,++++
17,B17,++++
18,B18,+
19,B19,++++
20,B20,++++
21,B21,++++
22,B22,++++
23,B23,+
